Assay results taken from a protein production outcome set (Wang et al. 2014).

Assay: label from the status in PepcDB records

Sequence	protein production
MNYSSRQQPKRNWLRKVDWILVLVISLLALTSVILISSAMGGGQYSANFSIRQIIYYIFGAIIAFLIMIISPKKIKNNTYILYSIFCVLLIGLLILPETSITPIINGAKSWYSFGPISIQPSEFMKIILILALAKTISKHNQFTFNKSFQSDLMLFFKILGVSIIPMALILLQNDLGTTLVLCAIIAGVMLVSGITWRILAPLFIVAFVSGSSIILAIIYKPSLIENLLGIKMYQMGRINSWLDPYSYSSGDGYHLTESLKAIGSGQLLGKGYNHGEVYIPENHTDFIFSVIGEEMGFIGSVLLILLFLFLIFHLIRLASKIDSQFNKVFIIGYVSLIVFHVLQNIGMTVQLLPITGIPLPFISYGGSSLWSLMTGIGVVLSIYYHEPQRYEITTLSKKSNTI	failed
MLQMNLEELRRIQEEMSRSVVLEDLIPLEELEYVVGVDQAFISDEVVSCAVKLTFPELEVVDKAVRVEKVTFPYIPTFLMFREGEPAVNAVKGLVDDRAAIMVDGSGIAHPRRCGLATYIALKLRKPTVGITKKRLFGEMVEVEDGLWRLLDGSETIGYALKSCRRCKPIFISPGSYISPDSALELTRKCLKGYKLPEPIRIADKLTKEVKRELTPTSKLKLEHHHHHH	failed
MKRSTRFQQRSLFAIGGLGLLIGVAFVLVQFRATLIFTVFLYYASRPIYRKLESVSTPSYFSEYSLPYRRQILAVTTISVFLLPFLLLFTYTLALVVPAVQQFIGQNDLASGYLSAIQSADSGGLPEPIAGLQISDLLDMSPEEIVTILNAPSVRTWIEQTLGTLISSIGVFADVGIQAFLLLSGTYYLLTDGPRLSRWLFDHFDESGVVESYAIAVDDELSSILFGNILNALVTGIIGIVVFSAYNSISPAAVQVPFAPLVGALTGAGSLIPVVGMKIVYFPVGAILTVGAVASGQATAIGYVLLFLILAFVVVDTIPDFLIRPYVSGNRTHVGLLMFAYILGPIVFGAYGIFLGPILLVLVAQFFRTVAPYVATGEPPDQSKLYEY	failed
MFGAELVIVLLAIYLGARLGGIGIGFAGGLGVLVLTLIFQIKPGAIPFDVIEIIMAVIAAIAAMQVAGGMDYLVSLAERMLRRHPKYITFLAPLVTWFMTVLAGTGHTAFSTLPVITEVAKEQGIRPSRPLSIAVVASQIAITASPISAAVVFFAGILEPLGVSYLTLLAICIPVTLLAVMLTAIVCNFLGCELKDDPVYQERLAKGEVRLRGSQVFELQPHAKRSVLLFLIGIVAVMFYATAISDTVGLIKNPVLPRNEAIVVFMLTIATLISITCKIDTGEVLNASTFKSGMSACVCVLGVAWLGDTFVKAHISDIQAVAGDLLHNYPWLLAVVLFFAATLLYSQAATTKALMPAALLLGVSPLTAIASFAAVSALFVLPTYPTLLAAVEMDDTGSTRIGKYVFNHAFLIPGVIAITLCVILGFIFGGIML	failed
MSLKAVIFDLDGVITDTAEYHFLAWKHIAEQIDIPFDRDMNERLKGISREESLESILIFGGAETKYTNAEKQELMHRKNRDYQMLISKLTPEDLLPGIGRLLCQLKNENIKIGLASSSRNAPKILRRLAIIDDFHAIVDPTTLAKGKPDPDIFLTAAAMLDVSPADCAAIEDAEAGISAIKSAGMFAVGVGQGQPMLGADLVVRQTSDLTLELLHEEWEQYRIRESEGHHHHHH	not failed
MSDYLDMLASFGVSSAHPGGMSLSKAVLAKAGIDPEQPILDAGCGTGQTAAYLGQLLFPVTALDADPVMIDKARQRFKKEQLSIPAVRSPLEEMPFQSESFACVLTESVLSFTNIRSALQEIRRILKPGGMLVAIEVCLKEGNALTDEAKKEITEFYGFTALYDEDEWVNVLREEGFSKIDIIPVVLEDAGDPDDAVEMDLSPAISDKDYETMEKHLHYLEKYRDSLDHIIFISHL	failed
VLTMPLVTSISQLNEPITLVSYTMGNVNGVPVNNVRKEHFTTWALVLSQYLSEVKASVGTKLEDTVTFVVRYDQPETILNSWRIEWQEKQYDIVKLTPDTAKKQWTTIIGKPVANK	not failed
MIKEARLNDYMGDEVWYVPATRNMLNMLGIRTHYIDNNSTGVNIFLKEPLYVGKVVINIYGIKIEKSVREYPKIPELVRKLGINIEYLPFNYTKNESYWENLKLKIWEIAERNGFLEYETYSKFPGVYYVIPVENYERFMKELSNFSDIVVVPGYKYPDEENIHKYLNTEHPFLGKDLIALGMLANDKPLYWRLPGIIEHALIVLIVAFVSYKIARSYLATLISATFVALDPLLFATGIVAMLDIHVAFFVALFMLFLTIRRLRISGISLGLAAATKLSGAFVFPILWAKILKEEDLKEFIISGVVLPVIAFLVPEIPIIKAIGFIPWLEEFMGSFSWHLSFKGEHPAEAPFWLWFISLKPFPFHFNPDVYAVTDPILMISMIAFIFAVPYVSLRRKGLGEIFWMFWSIIGFFALQYILGGKTQFIFYATPLVPPGAVALGVISYEIIKWEYFERSVKIYMNYLRSLKEFIKR	failed
MNEQIDPFYEAKQEVDISVNKLQSLYNNWNNIPDKSSISAREKYNLIKEEIKYLNEDLNDLDNSVNIVKKNSYKFNISSQEIEERTQSLRIIRNLLNEITNNINNNVLSYNNNTNNDYNSVILKRQDNDLEELAESAERLHHAAITINTELKDQQKLLDELENEMDISSNEYKMDIYSIYIFVYFEFS	failed
MKRRRRNSKLKFEETSDQSPTSTAEFSFSLTKIAVSQICQSIGYKATDASALNTLTLTTTKFLQSLAELASSFSNTANRTEVNLFDIVNGLQDIALSTSDCFPGGSTVHDIESQCLIKSAVLRNLSDFVTYAPEIPFAKPLPRRERDGSFGGDLDHVAVTRSVDVTSVPAWLPPFPDSSLCSDRCSKDNRSDHLWENSDSVIRREILPESLKSKSGGRLPVMRDKVRFKMEQRDWSSGGDTRLERSRDNNNGESGRDLEVKKKIREGYTYCAGEWPF	failed
MTSKHFISKKEAKRIWEAMARYGIDITGESLEVAAQKSASAYYIGGKPMVFQAGDLIPSVYLLNYRNPSRNIVTVDEGAEPHILNGSDLFAPGIVSMDDSIRKGDMIFVKSSKGYFIAVGMAEMDAGEVMATKRGKAARIIHFPGDELIRAFP	not failed
MSTSYQHSGPEFTEAQMQAMVDGLFAGASIGAVCNMQQEQLEAGYALAYNLYTAGNYRDAETMFRALCVYDHNDERYWLGLAGCRQAQGDLAGAIDAYGLAGAASALGDPAPFVHAGICYMKLGDTENARNTFAGVPFIGDPDNDTHAAMHRKAEAMLELLAGERP	failed
MSLSYVKEGLAVLEDGRLIYITPEEFRQLLQGDAILAVYSKTCPHCHRDWPQLIQASKEVDVPIVMFIWGSLIGERELSAARLEMNKAGVEGTPTLVFYKEGRIVDKLVGATPWSLKVEKAREIYGGEGHHHHHH	not failed
SETRSPGLNNMKPQSLQLVLEEQVLALQQQMAENQAASWRKLKNSQEAQQRQATLVRKLQAKVLQYRSWCQELEKRLEATGGPIPQRWENVEEPNLDELLVRLEEEQQRCESLAEVNTQLRLHMEKADVVNKALREDVEKLTVDWK	failed
MKILLLGGNGFIGRRLAARLIEAGHELSAPSRVELDLARPNQDWAAWVDGVDAVANLAGAFRQGRAGGFEAIHHAGPLRLAALARAHGVRRWVQLSALGAAAHAGAPFLSSKGRGDAALLDCGMEAVVARPSLIYGADGASSRLLLRLARLPFWLLPEGGGQRIQPVAAADVAEGLQRLIEGDARGVIDFVGAAEASLADYLRQLRRLQGVGGAAWLCPVPAWLAAGLAAACGCWPGSLLNRDSLRMLRQGSTADPAAFAALLGRQPLSFRQFGEVA	failed
MSDVEDVPETQLEIDVSDGAGLEDEDDDDMEQITAQKVLEIIETAWINEMCAPEILPSQTDMLELMVSQVAHMEEQMRDLDKNDFRAVVHSMELERVRYIMASYLRCRLQKIETFTQHILNQEESREPDDKRLSPEETKFAQEFASNVDEYFHKVATQYMPNQQRGEAEQRIVTPNLMSHVFLKANVAVPAVIVGVDDEEVDMAAGSQHIIPYQLVADLIQNNQAQLI	failed
MDSEAQQISLLIGKEDRYGRVEVNLMEVEPMNAEDFNAKLDVSFKAWKDQGKKGIWIKLPCELSSLVDIAMKKGFTYHHAENEYAVLSSWISDLPNTIPANASHRIGIGALVLNKNREVLAVQEIDGVFKDTGLWKLPTGVIQENRENFRYMANICLKRSQEKEYLGFSNVLTKNSTGKESYLYCSTDHAYFLKGKPDHSSTSLFTTLLRKCFSI	failed
MDLDNLFKTTSSSKDKKNNTIDLVVSDDMAFLQAIDELYAIEGFASPLKVDDIDDESWHKTSAEIKHVVLDLRDCGELVSEVAEISSRLDVSISLIVLSNTDSILMRDKVLSLGANYILWDPELDGLLGALKESGKDTFSPTVKKKSRIAKRVLMLGSKGGVGVSTISAFLSHSLSQQASLKTLLVEHDTLALNSDIFLGLKGLKAQQNSIDLNQSELDAAIAGSYVHPIKDKLDFLALEKNIACISDHADSLFRISNELVDQYNFIIDSLPLNAINELTSEDINERYNRIFVVCEPSVASLRAYHSIKKKLGKAEHRIIFSMTRSQKDYMMPLQGAKEKIKAKDTIDFVYEANLEKLIIQQGIHNTAKIKFTPAIANMVNSLTGKKVKVQKKFAWFKK	failed
MKVKILVDSTADVPFSWMEKYDIDSIPLYVVWEDGRSEPDEREPEEIMNFYKRIREAGSVPKTSQPSVEDFKKRYLKYKEEDYDVVLVLTLSSKLSGTYNSAVLASKEVDIPVYVVDTLLASGAIPLPARVAREMLENGATIEEVLKKLDERMKNKDFKAIFYVSNFDYLVKGGRVSKFQGFVGNLLKIRVCLHIENGELIPYRKVRGDKKAIEALIEKLREDTPEGSKLRVIGVHADNEAGVVELLNTLRKSYEVVDEIISPMGKVITTHVGPGTVGFGIEVLERKR	not failed
MIDVIGTDAGAPASLPAAQQALIRAAEQIAAPRRLQPALETWLESPVPLIDSDDPRHLVEVLSALSAQTNAVVLASGDPLWFGIGRILAERLGPERLRFHPAPTSLQLAFARIGRPWQDARWVSLHGRDPEPLARELQTRPRALAVLTDPGRGGADAVRRCLRSSGLEASYQLWLGENLGHADERMRLIPADAPLPEPLQPLLVALLIAEEPSIPNSRALPLFGLEDGLYLQHPDHPGLMTKREARIQLLADLDLPDQGVLWDLGAGTGSIGLEALRLRPQLRLLAVERRAGGAALIQANAKRLEVMPSAVVETDALSLLSADLPDGLDQPDRVLLGGGGPHREALLKAVLQRLRPSGIVVIPLATLEAVATLRPLMEQSGLTVQLNQLQAWRGQPLSDGTRLAPMNPILSLKGT	failed
MTAPKVFVSHASEDKARFVVDFARRLRENGVDAWLDQWEMKPGDSLVDKIFEEGLREARAVVIVLSATSVRKPWVREELNASVVNRISRGTKLIPVVIDDCDVPEALRSTVWQKIDNLDDYGESLQRILSVIFDVTDKPALGAPPARFAGPAPLIAGLSRVDDLVIRVIARRQIDEGAGLVEWDRLKAEPILRDVPQQELLDSLEILKRHDFIRVREVIGALHVVLTDLGFLKFAEAYVDDYQGTVNQIAALLVNENVRQNRELAARVNKPVAFIDFVLNLMESNGYIKVSKYIGGQSHVREVSASLRRALQSA	failed
MQDFWHAASAQLESELTPQQFKTWIKPLTPLSFDEQACMLRIAAPNRFKLDWVKSQFSGRIQSLACDYWEMQVDVQFVLDPTAGQRQAAMQPALAPMPMQPLAAQTMQAQAVPREAPARPTMAPYRETPMATAAHAAADIDVPVMDAAEASTQSYRVPAPAAPAVMGGLSAPPAAPVDDTVHERSRLNPILTFDNLVTGKANQLARAAAVQVANNPGKSYNPLYLYGGVGLGKTHLIHAIGNFMLMENPRARIRYIHAEQYVSDVVKAYQRKAFDDFKRYYHSLDLLLIDDIQFFSGKNRTQEEFFYAFEALIANRAQVIITSDTYPKEITGIDDRLISRFDSGLTVAIEPPELEMRVAILMKKAQAENVTVPEEVAFFVAKHLRSNVRELEGALRKILAYSNFHGKEITIEVTREALKDLLTVQNRQISVENIQKTCADFYNIKVADMYSKKRPANIARPRQIAMYLAKELTQKSLPEIGELFGGRDHTTVLHAVRKIADERSKDAQLNHELHVLEQTLKG	failed
